Measured values published in publication PMC12888920, “MMP-9 regulates disulphide isomerase activity of TGM2 to enhance fusion glycoprotein-mediated syncytium formation of respiratory syncytial virus” (Protein & Cell, 2025).

Legend:
[1] = target: T1, TGM2 (Homo sapiens, UniProt P21980); test: Biolayer interferometry, MMP-9 binding to TGM2; conditions: BLI, purified human proteins, TGM2 immobilized; read-out: dissociation constant (KD), MMP-9 to TGM2
T1 construct: His tag (inferred from capture on anti-penta-HIS biosensors); purchased MCE (MedChemExpress)
T1 sequence (P21980 1-687): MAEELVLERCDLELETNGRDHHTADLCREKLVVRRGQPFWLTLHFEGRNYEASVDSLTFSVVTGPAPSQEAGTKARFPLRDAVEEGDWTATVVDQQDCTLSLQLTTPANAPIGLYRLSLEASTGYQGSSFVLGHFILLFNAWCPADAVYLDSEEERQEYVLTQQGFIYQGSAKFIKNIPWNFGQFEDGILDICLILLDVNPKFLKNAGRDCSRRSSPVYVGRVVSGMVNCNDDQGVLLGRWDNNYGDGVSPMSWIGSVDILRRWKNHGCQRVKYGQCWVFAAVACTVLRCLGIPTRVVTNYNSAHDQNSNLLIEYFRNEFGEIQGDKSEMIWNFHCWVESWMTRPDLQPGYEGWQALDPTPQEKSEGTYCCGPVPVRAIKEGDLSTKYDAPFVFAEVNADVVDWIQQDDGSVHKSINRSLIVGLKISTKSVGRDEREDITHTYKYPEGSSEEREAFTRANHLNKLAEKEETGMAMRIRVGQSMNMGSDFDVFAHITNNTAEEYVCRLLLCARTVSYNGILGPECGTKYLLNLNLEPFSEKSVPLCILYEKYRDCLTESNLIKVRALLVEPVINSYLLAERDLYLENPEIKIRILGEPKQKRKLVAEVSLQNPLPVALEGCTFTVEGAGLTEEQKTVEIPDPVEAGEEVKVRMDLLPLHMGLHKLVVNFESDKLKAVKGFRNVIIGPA
Method: Figure 6. MMP-9 cleaves TGM2 to potentiate RSV infection. (A) MMP-9–TGM2 interaction. […] Blots represent three independent experiments. (D) Infection-enhanced cleavage. MMP-9-dependent TGM2 proteolysis in HEp-2 cells transfected with HA-TGM2 and siMMP-9, followed by RSV A2 infection (MOI = 1, 72 hpi). TGM2 fragment band intensity was quantified by ImageJ software (gray values). Blots represent three independent experiments. (E) Enzymatic validation. MMP-9 proteolytic activity was measured using fluorogenic substrate Mca-PLGL-Dpa-AR-NH2. The results represent three biological replicates. (F) In vitro cleavage assay. Recombinant TGM2 (2 µg) was incubated with APMA-activated MMP-9 (0.2 µg) for 18 h (37°C, pH 7.5). Cleavage products resolved by SDS-PAGE (10%). Arrows indicate proteolytic fragments. The results represent three biological replicates. (G) Functional rescue. Viral titers (FFA) in HEp-2 cells overexpressing MMP-9, TGM2, or cleavage-resistant mutant (TGM2-P375A) post RSV infection (MOI = 1, 72 hpi). mean ± SD, n = 3. (H) Syncytium rescue. Syncytia area quantification in MMP-9/TGM2-modulated cells (ImageJ software). mean ± SD, n = 3. […]
(§1) 271 TGM2) were quantified using a Sartorius Octet R4 system. […]
(§2) 275 equilibration. MMP-9 (MCE) binding was assessed across two concentration ranges: […]
(§3) 281 (Sartorius) at 20 µg/mL. TGM2 binding was evaluated across 0 –100 µM (7 […]

[2] = target: RSV F protein (DS-Cav1); test: Biolayer interferometry, MMP-9 binding to RSV F protein (DS-Cav1); design: species or system Respiratory syncytial virus; conditions: BLI, DS-Cav1 immobilized; read-out: dissociation constant (KD), MMP-9 to RSV F
Method: Figure 4. MMP-9 interacts with RSV F protein. (A) MMP-9–F protein interaction analysis. HEK293T cells co-transfected with MMP-9 and RSV F plasmids (48 h) were subjected to co-immunoprecipitation (Co-IP) using anti-F, anti-MMP-9, or IgG control antibodies, followed by immunoblotting with indicated probes. Blots represent three independent experiments. (B) Binding affinity quantification. Biolayer interferometry (BLI) assays using ForteBio Octet measured DS-Cav1 (RSV F prefusion conformation) and MMP-9 interactions. The results represent three biological replicates. (C) Subcellular co-localization. Confocal microscopy of HEp-2 cells transfected with MMP-9 (24 h) ± RSV A2 infection (MOI = 1, 72 hpi). Nuclei (DAPI), MMP-9, and RSV F signals are shown. Scale bar: 20 µm. Images represent three biological replicates. (D) No effect on F protein proteolytic processing. Western blot of RSV F cleavage status in HEK293T cells co-expressing MMP-9 (100–500 ng) and RSV F (500 ng) for 48 h. β-Actin served as loading control. Blots represent three independent experiments. […] They were left out and are not reliably readable. […]
as §1, §2, §3

B1: MMP-9: recombinant matrix metalloproteinase 9 protein used as analyte in BLI (protein)
chain: APRQRQSTLVLFPGDLRTNLTDRQLAEEYLYRYGYTRVAEMRGESKSLGPALLLLQKQLSLPETGELDSATLKAMRTPRCGVPDLGRFQTFEGDLKWHHHNITYWIQNYSEDLPRAVIDDAFARAFALWSAVTPLTFTRVYSRDADIVIQFGVAEHGDGYPFDGKDGLLAHAFPPGPGIQGDAHFDDDELWSLGKGVVVPTRFGNADGAACHFPFIFEGRSYSACTTDGRSDGLPWCSTTANYDTDDRFGFCPSERLYTQDGNADGKPCQFPFIFQGQSYSACTTDGRSDGYRWCATTANYDRDKLFGFCPTRADSTVMGGNSAGELCVFPFTFLGKEYSTCTSEGRGDGRLWCATTSNFDSDKKWGFCPDQGYSLFLVAAHEFGHALGLDHSSVPEALMYPMYRFTEGPPLHKDDVNGIRHLYGPRPEPEPRPPTTTTPQPTAPPTVCPTGPPTVHPSERPTAGPTGPPSAGPTGPPTAGPSTATTVPLSPVDDACNVNIFDAIAEIGNQLYLFKDGKYWRFSEGRGSRPQGPFLIADKWPALPRKLDSVFEERLSKKLFFFSGRQVWVYTGASVLGPRRLDKLGLGADVAQVTGALRSGRGKMLLFSGRRLWRFDVKAQMVDPRSASEVDRMFPGVPLDTHDVFQYREKAYFCQDRFYWRVSSRSELNQVDQVGYVTYDILQCPED
For B1, which Kd [1] is on record?
Its Kd is 1980 nM.

And the Kd [2]?
The Kd was 146 nM.
